Data on 125 sequences can be found in the supplement of paper PMC9112550, “Optimization of the antimicrobial peptide Bac7 by deep mutational scanning” (BMC Biology, 2022).

This series relates to Escherichia coli TOP10. Put plainly: shrunken log2 fold change of peptide-encoding DNA abundance (4.5 h post-induction vs induction); higher = less antimicrobial activity (less host growth inhibition). Conditions: time post-induction: 4.5 h; library: site-saturation at positions 5, 18, 19, 20.
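Further: peptides expressed intracellularly from a pBAD plasmid library in pooled LB shake-flask culture, induced with 0.3% L-arabinose, DNA abundance read by NGS, three biological replicates, DESeq2 with apeglm shrinkage.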

Consider RRIRWRPPRLPRPRPRPNMAPRP, for which the “shrunken log2 fold change” value amounted to 0.345.

As to RRIRKRPPRLPRPRPRPFPAPRP, the “shrunken log2 fold change” value came to 0.341.

As to RRIRGRPPRLPRPRPRPGMFPRP, the “shrunken log2 fold change” value was found to be 0.474.

In the case of RRIRDRPPRLPRPRPRPDQIPRP, the “shrunken log2 fold change” value is -0.0336.

For the sequence RRIRGRPPRLPRPRPRPLRLPRP, the “shrunken log2 fold change” value stood at 1.34.

RRIRYRPPRLPRPRPRPANEPRP: the “shrunken log2 fold change” value was 0.0338.

On to RRIRIRPPRLPRPRPRPFLNPRP, for which the “shrunken log2 fold change” value is -0.429.

Take RRIRFRPPRLPRPRPRPHMIPRP: the “shrunken log2 fold change” value was -0.395.

Turning to RRIRERPPRLPRPRPRPHKSPRP, the “shrunken log2 fold change” value was -0.0459.

Turning to RRIRQRPPRLPRPRPRPHSLPRP, the “shrunken log2 fold change” value is 0.178.

For the sequence RRIRPRPPRLPRPRPRPMVDPRP, the “shrunken log2 fold change” value was -0.019.

With RRIRSRPPRLPRPRPRPWCPPRP, the “shrunken log2 fold change” value was -0.549.

In the case of RRIRRRPPRLPRPRPRPAALPRP, the “shrunken log2 fold change” value amounted to 0.55.

On to RRIRARPPRLPRPRPRPEYVPRP, for which the “shrunken log2 fold change” value came to 0.0744.

For the sequence RRIRTRPPRLPRPRPRPVIYPRP, the “shrunken log2 fold change” value is 0.721.

For RRIRSRPPRLPRPRPRPYQLPRP, the “shrunken log2 fold change” value is -0.149.

Regarding RRIRYRPPRLPRPRPRPLVQPRP, the “shrunken log2 fold change” value was -0.49.

In the case of RRIRFRPPRLPRPRPRPEESPRP, the “shrunken log2 fold change” value was determined as 0.195.

Take RRIRGRPPRLPRPRPRPPLNPRP: the “shrunken log2 fold change” value came out at 0.789.

For RRIRIRPPRLPRPRPRPPRVPRP, the “shrunken log2 fold change” value came out at 0.278.

On to RRIRGRPPRLPRPRPRPWIDPRP, for which the “shrunken log2 fold change” value was -0.103.

RRIRVRPPRLPRPRPRPLFFPRP: the “shrunken log2 fold change” value was -0.121.

Regarding RRIRLRPPRLPRPRPRPVCCPRP, the “shrunken log2 fold change” value is -0.185.

Turning to RRIRSRPPRLPRPRPRPQKYPRP, the “shrunken log2 fold change” value was -0.428.

For the sequence RRIRSRPPRLPRPRPRPNRHPRP, the “shrunken log2 fold change” value was -0.219.

Consider RRIRIRPPRLPRPRPRPREIPRP, for which the “shrunken log2 fold change” value was -0.0162.

As to RRIRARPPRLPRPRPRPHYWPRP, the “shrunken log2 fold change” value was -0.658.

Consider RRIRQRPPRLPRPRPRPYHCPRP, for which the “shrunken log2 fold change” value was -0.0107.

Take RRIRPRPPRLPRPRPRPMFGPRP: the “shrunken log2 fold change” value was -0.253.

As to RRIRNRPPRLPRPRPRPYIKPRP, the “shrunken log2 fold change” value is -1.03.

In the case of RRIRTRPPRLPRPRPRPYMEPRP, the “shrunken log2 fold change” value was 2.39.

RRIRMRPPRLPRPRPRPEIWPRP: the “shrunken log2 fold change” value came out at 1.2.

Regarding RRIRCRPPRLPRPRPRPMRFPRP, the “shrunken log2 fold change” value came out at 0.249.

Regarding RRIRNRPPRLPRPRPRPVRSPRP, the “shrunken log2 fold change” value is -0.00792.

Take RRIRDRPPRLPRPRPRPPCNPRP: the “shrunken log2 fold change” value was -0.424.

RRIRRRPPRLPRPRPRPMFTPRP: the “shrunken log2 fold change” value is 0.0616.

Consider RRIRRRPPRLPRPRPRPMFRPRP, for which the “shrunken log2 fold change” value was -0.0342.

For the sequence RRIRERPPRLPRPRPRPVGYPRP, the “shrunken log2 fold change” value was found to be 0.161.

RRIRLRPPRLPRPRPRPVSLPRP: the “shrunken log2 fold change” value is -0.0897.

Consider RRIRCRPPRLPRPRPRPYWHPRP, for which the “shrunken log2 fold change” value is -1.53.

For RRIRDRPPRLPRPRPRPGECPRP, the “shrunken log2 fold change” value was -0.0602.

RRIRSRPPRLPRPRPRPYSCPRP: the “shrunken log2 fold change” value is -0.386.

As to RRIRLRPPRLPRPRPRPMIWPRP, the “shrunken log2 fold change” value is -0.0275.

For RRIRQRPPRLPRPRPRPADIPRP, the “shrunken log2 fold change” value is -0.01.

With RRIRGRPPRLPRPRPRPMKDPRP, the “shrunken log2 fold change” value was determined as 0.55.

In the case of RRIRWRPPRLPRPRPRPEIEPRP, the “shrunken log2 fold change” value was found to be 0.193.

In the case of RRIRARPPRLPRPRPRPWFQPRP, the “shrunken log2 fold change” value stood at 0.0762.

For RRIRRRPPRLPRPRPRPVHRPRP, the “shrunken log2 fold change” value was -0.0888.

Turning to RRIRNRPPRLPRPRPRPIMEPRP, the “shrunken log2 fold change” value is -0.139.

Regarding RRIRKRPPRLPRPRPRPIADPRP, the “shrunken log2 fold change” value was -0.125.

As for RRIRWRPPRLPRPRPRPRYHPRP, the “shrunken log2 fold change” value is -0.198.

As for RRIRGRPPRLPRPRPRPTMSPRP, the “shrunken log2 fold change” value stood at 0.496.

For RRIRTRPPRLPRPRPRPIHTPRP, the “shrunken log2 fold change” value is -0.371.

For RRIRPRPPRLPRPRPRPCTAPRP, the “shrunken log2 fold change” value was -0.109.

For RRIRRRPPRLPRPRPRPQIDPRP, the “shrunken log2 fold change” value was found to be 0.332.

Turning to RRIRRRPPRLPRPRPRPNNLPRP, the “shrunken log2 fold change” value is -0.293.

Take RRIRYRPPRLPRPRPRPTWTPRP: the “shrunken log2 fold change” value turned out to be 0.0315.

For the sequence RRIRIRPPRLPRPRPRPYYLPRP, the “shrunken log2 fold change” value is -0.423.

For RRIRWRPPRLPRPRPRPNYEPRP, the “shrunken log2 fold change” value is -0.222.

In the case of RRIRRRPPRLPRPRPRPQCHPRP, the “shrunken log2 fold change” value is -0.0986.

On to RRIRSRPPRLPRPRPRPSFFPRP, for which the “shrunken log2 fold change” value was -0.211.

For the sequence RRIRCRPPRLPRPRPRPDGYPRP, the “shrunken log2 fold change” value was -0.0404.

In the case of RRIRMRPPRLPRPRPRPISPPRP, the “shrunken log2 fold change” value turned out to be 0.0263.

Turning to RRIRWRPPRLPRPRPRPAAEPRP, the “shrunken log2 fold change” value came out at 1.21.

As to RRIRKRPPRLPRPRPRPSHQPRP, the “shrunken log2 fold change” value was -0.146.

As for RRIRQRPPRLPRPRPRPECWPRP, the “shrunken log2 fold change” value was found to be 0.358.

RRIRKRPPRLPRPRPRPYFMPRP: the “shrunken log2 fold change” value was -0.501.

On to RRIRIRPPRLPRPRPRPNLHPRP, for which the “shrunken log2 fold change” value is -0.623.

Consider RRIRMRPPRLPRPRPRPMGNPRP, for which the “shrunken log2 fold change” value amounted to 0.451.

For the sequence RRIRLRPPRLPRPRPRPQCVPRP, the “shrunken log2 fold change” value worked out at 0.0615.

For the sequence RRIRMRPPRLPRPRPRPQMFPRP, the “shrunken log2 fold change” value was -0.0181.

Regarding RRIRIRPPRLPRPRPRPPMVPRP, the “shrunken log2 fold change” value was -0.572.

In the case of RRIRMRPPRLPRPRPRPPWNPRP, the “shrunken log2 fold change” value worked out at 0.369.

For the sequence RRIRDRPPRLPRPRPRPIFIPRP, the “shrunken log2 fold change” value is -0.345.

Turning to RRIRNRPPRLPRPRPRPTRLPRP, the “shrunken log2 fold change” value is 0.2.

With RRIRERPPRLPRPRPRPTVQPRP, the “shrunken log2 fold change” value is -0.157.

In the case of RRIRPRPPRLPRPRPRPIKCPRP, the “shrunken log2 fold change” value is -0.358.

Take RRIRVRPPRLPRPRPRPCQAPRP: the “shrunken log2 fold change” value is -0.0137.

RRIRARPPRLPRPRPRPGTLPRP: the “shrunken log2 fold change” value worked out at 0.22.

As to RRIRQRPPRLPRPRPRPPIEPRP, the “shrunken log2 fold change” value is -0.09.

RRIRERPPRLPRPRPRPSITPRP: the “shrunken log2 fold change” value was -1.36.

Take RRIRCRPPRLPRPRPRPNWQPRP: the “shrunken log2 fold change” value was -0.145.

Turning to RRIRCRPPRLPRPRPRPVEFPRP, the “shrunken log2 fold change” value was -0.05.

In the case of RRIRGRPPRLPRPRPRPELIPRP, the “shrunken log2 fold change” value amounted to 0.408.

Take RRIRYRPPRLPRPRPRPPNQPRP: the “shrunken log2 fold change” value was -0.44.

With RRIRDRPPRLPRPRPRPDAKPRP, the “shrunken log2 fold change” value worked out at 0.162.

In the case of RRIRIRPPRLPRPRPRPTTGPRP, the “shrunken log2 fold change” value was -0.228.

Regarding RRIRVRPPRLPRPRPRPNIPPRP, the “shrunken log2 fold change” value was -0.463.

On to RRIRRRPPRLPRPRPRPTGCPRP, for which the “shrunken log2 fold change” value is 0.0105.

With RRIRHRPPRLPRPRPRPQAVPRP, the “shrunken log2 fold change” value came out at 0.00884.

As for RRIRLRPPRLPRPRPRPPVMPRP, the “shrunken log2 fold change” value is 0.154.

RRIRERPPRLPRPRPRPICMPRP: the “shrunken log2 fold change” value was -0.309.

For the sequence RRIRKRPPRLPRPRPRPNGEPRP, the “shrunken log2 fold change” value worked out at 0.189.

Turning to RRIRWRPPRLPRPRPRPCPWPRP, the “shrunken log2 fold change” value was -0.0137.

Turning to RRIRTRPPRLPRPRPRPDCSPRP, the “shrunken log2 fold change” value was -0.239.

On to RRIRWRPPRLPRPRPRPPTGPRP, for which the “shrunken log2 fold change” value worked out at 0.23.

Take RRIRWRPPRLPRPRPRPVIFPRP: the “shrunken log2 fold change” value is 1.32.

For the sequence RRIRWRPPRLPRPRPRPRYLPRP, the “shrunken log2 fold change” value is -0.382.

RRIRHRPPRLPRPRPRPLWMPRP: the “shrunken log2 fold change” value was -0.138.

Take RRIRSRPPRLPRPRPRPGGKPRP: the “shrunken log2 fold change” value was 0.0269.

For the sequence RRIRKRPPRLPRPRPRPMAMPRP, the “shrunken log2 fold change” value turned out to be 0.325.

Consider RRIRMRPPRLPRPRPRPDARPRP, for which the “shrunken log2 fold change” value is -0.0547.

In the case of RRIRIRPPRLPRPRPRPVSYPRP, the “shrunken log2 fold change” value was -0.599.

As for RRIRWRPPRLPRPRPRPCGGPRP, the “shrunken log2 fold change” value stood at 0.123.

Turning to RRIRERPPRLPRPRPRPCRFPRP, the “shrunken log2 fold change” value is -0.455.

On to RRIRDRPPRLPRPRPRPHESPRP, for which the “shrunken log2 fold change” value was -0.0121.

Take RRIRARPPRLPRPRPRPNTMPRP: the “shrunken log2 fold change” value is -0.223.

Consider RRIRMRPPRLPRPRPRPVASPRP, for which the “shrunken log2 fold change” value stood at 0.58.

Consider RRIRRRPPRLPRPRPRPIDSPRP, for which the “shrunken log2 fold change” value was -0.0316.

Regarding RRIRFRPPRLPRPRPRPQRLPRP, the “shrunken log2 fold change” value worked out at 0.106.

For RRIRCRPPRLPRPRPRPVITPRP, the “shrunken log2 fold change” value is -0.496.

With RRIRIRPPRLPRPRPRPENDPRP, the “shrunken log2 fold change” value was -0.312.

Turning to RRIRSRPPRLPRPRPRPTTAPRP, the “shrunken log2 fold change” value was 0.155.

In the case of RRIRDRPPRLPRPRPRPNSLPRP, the “shrunken log2 fold change” value is 0.0174.

As for RRIRERPPRLPRPRPRPQWDPRP, the “shrunken log2 fold change” value came out at 0.0698.

With RRIRRRPPRLPRPRPRPDMMPRP, the “shrunken log2 fold change” value is -0.137.

For RRIRQRPPRLPRPRPRPAIHPRP, the “shrunken log2 fold change” value is 0.135.

Take RRIRRRPPRLPRPRPRPSLDPRP: the “shrunken log2 fold change” value came out at 0.34.

RRIRGRPPRLPRPRPRPQAFPRP: the “shrunken log2 fold change” value is 0.112.

On to RRIRDRPPRLPRPRPRPQCFPRP, for which the “shrunken log2 fold change” value is 0.0363.

Turning to RRIRMRPPRLPRPRPRPQRQPRP, the “shrunken log2 fold change” value was 0.0595.

In the case of RRIRIRPPRLPRPRPRPQLQPRP, the “shrunken log2 fold change” value is -0.0769.

Regarding RRIRTRPPRLPRPRPRPRKFPRP, the “shrunken log2 fold change” value is 0.0711.

In the case of RRIRPRPPRLPRPRPRPMNWPRP, the “shrunken log2 fold change” value is -0.0482.

Consider RRIRKRPPRLPRPRPRPAYTPRP, for which the “shrunken log2 fold change” value is -0.0132.
